± gives the standard deviation.

72 sequences from the supplement of paper PMC10567573 can be followed below.

A short description of this series: protein stability index of a GFP-peptide fusion (GPS, HEK-293T) (PSI 1-6); higher = more stable.
[1] abbreviates: treatment: DMSO, c terminus: a fixed tail appended.
The mark [2] stands for this setting: treatment: MLN4924 1 uM, 8 h, c terminus: a fixed tail appended.
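Note: 24-mer peptide tiles fused after GFP, lentivirally expressed, FACS-sorted into six equal bins by GFP/DsRed ratio, decoded by Illumina sequencing, PSI is the read-weighted mean bin number.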

SLFIALITGAYDTIKHPGGAGAEE [MCOLN1]: the protein stability index runs as follows: under setting [1], 2.45 ± 0.58; under setting [2], 2.2 ± 0.44.
With SLGSESEEEEEFYDADEETQMIK [SLC22A15], the protein stability index by setting is: (treatment: DMSO, c terminus: native) 5.01 ± 0.35; (treatment: MLN4924 1 uM, 8 h, c terminus: native) 4.92 ± 0.37.
Sequence SLGYKEIRKGESRSEALAVDGAGK [CHGA] displayed a protein stability index under setting [1] of 5.03 ± 0.52 and a protein stability index under setting [2] of 4.95 ± 0.31.
Turning to SLKEAEFYDKQLKVLLSGATFLVT [ZFYVE21], the protein stability index worked out at 2.27 ± 0.52 under setting [1] and 2.55 ± 0.19 under setting [2].
In turn, SLQDASRGDPAHAGLAELGHRLAQ [PBXIP1] showed a protein stability index under setting [1] of 4.33 ± 0.34 and a protein stability index under setting [2] of 4.38 ± 0.27.
Sequence SLWERLEFVNGWYILLVTSDVLTI [MCOLN1] returned a protein stability index under setting [1] of 3.5 ± 0.68 and a protein stability index under setting [2] of 3.08 ± 0.45.
In the case of SMSGGRFRCPTCRHEVIMDRHGVY [TRIM63], the protein stability index is, setting by setting: under setting [1], 2.24 ± 0.11; under setting [2], 2.39 ± 0.35.
In turn, SNCISGVCSVRGGEGRSRGSANDY [KRT71] registered a protein stability index under setting [1] of 3.93 ± 0.36 and a protein stability index under setting [2] of 4.23 ± 0.084.
The corresponding values for SNLETIFRIIDSDHSGFISLDEFR [PPEF2] are 2.52 ± 0.24 and 2.73 ± 0.36.
Take SPDLEWHAACLKCAECSQYLDETC [ISL2]: the protein stability index by setting is: under setting [1], 4.04 ± 0.19; under setting [2], 4.03 ± 0.39.
On the same counts, the results for SPHSPDSSQSSLAQEEEEEDQGRT [DDIT3] are 5.57 ± 0.21 and 5.54 ± 0.17.
The corresponding values for SPVSRNRLAQVKRKILVLDLDETL [CTDNEP1] are 2.6 ± 0.35 and 2.77 ± 0.36.
The corresponding values for SPVTENSTSLSFLDSCNSLTPKST [MYBL2] are 4.91 ± 0.15 and 4.77 ± 0.14.
On to SPYLGQMINLRRLLLSHIHASSYI [PRAME], for which the protein stability index reads like this: under setting [1], 2.7 ± 0.51; under setting [2], 2.47 ± 0.48.
SQAHSTLKLANHQRPVSRQVTCLR [TRAF3IP2] showed a protein stability index under setting [1] of 3.5 ± 0.21 and a protein stability index under setting [2] of 3.61 ± 0.44.
The corresponding values for SQDFVGEKLGSGEPSHSVKVHTVP [ATE1] are 4.78 ± 0.17 and 4.83 ± 0.26.
The corresponding values for SQSFSLYVKYQVAIHQDPPDECGK [ATE1] are 2.75 ± 0.37 and 2.5 ± 0.35.
The corresponding values for SRDGMNIVLNKINQILMEKYLKLQ [INTS3] are 3.05 ± 0.81 and 2.43 ± 0.58.
Turning to SREWSGKEKWWDGQRDRKAEHWKH [PBXIP1], the protein stability index is 3.69 ± 0.27 under setting [1] and 3.91 ± 0.064 under setting [2].
With SRLPAKCPGKGAWSIPWKWLFGAT [FKBP8], the protein stability index came out at 1.99 ± 0.22 under setting [1] and 2.05 ± 0.28 under setting [2].
The corresponding values for SRVKCDQYWPSRGTETHGLVQVTL [PTPRD] are 2.42 ± 0.39 and 2.05 ± 0.4.
As to SSCNGPGQTTGHPYYLRSFLVVLK [FAN1], the protein stability index is 2.21 ± 0.47 under setting [1] and 2.51 ± 0.47 under setting [2].
In the case of SSKSSGDLVDLFDGTSQSTGGSAD [CLINT1], the protein stability index runs as follows: under setting [1], 5.41 ± 0.22; under setting [2], 5.55 ± 0.21.
The corresponding values for SSLLAPAKHLIASMLSKNPEDRPS [PLK2] are 3.2 ± 0.38 and 3.37 ± 0.18.
On the same counts, the results for SSTSGGSGYGFRPSMVSGGYVANS [KRT71] are 3.29 ± 0.31 and 3.46 ± 0.49.
Take STKTPAPCSEFMEPSSDPSLLGEP [SPAG8]: the protein stability index came out at 5.24 ± 0.44 under setting [1] and 5.25 ± 0.081 under setting [2].
On to STPLMEAAQEGHLELVKYLLAAGA [ANKRD17], for which the protein stability index worked out at 2.22 ± 0.15 under setting [1] and 2.48 ± 0.65 under setting [2].
The corresponding values for SVKLRALRSPRKFGVAGRSCQEVL [DFFB] are 2.73 ± 0.34 and 3.01 ± 0.54.
On the same counts, the results for SVSRPEGRSWPSAPDDSKAQAHRI [PDLIM4] are 4.76 ± 0.21 and 4.95 ± 0.18.
On the same counts, the results for SWDTESSGSDSGGSSSSSSSSINS [FAM104A] are 5.25 ± 0.22 and 5.1 ± 0.26.
On to SYATEADIISTVEFNHTGELLATG [PPP2R2B], for which the protein stability index is 3.9 ± 0.43 under setting [1] and 3.94 ± 0.32 under setting [2].
On the same counts, the results for SYKARLPLRLFLIIANTMAFQNDV [SCD] are 2.66 ± 0.53 and 2.5 ± 0.2.
On to SYLHAKKYLKPSGNMFPTIGDVHL [CARM1], for which the protein stability index was found to be 2.35 ± 0.39 under setting [1] and 2.64 ± 0.52 under setting [2].
SYLMDHFIPSSHNDRDFLTRIFTE [PPEF2]: the protein stability index is, setting by setting: under setting [1], 2.5 ± 0.19; under setting [2], 2.51 ± 0.28.
On the same counts, the results for SYYNSPGLHVQHMGTSHGITRPSP [CCDC6] are 3.2 ± 0.29 and 3.24 ± 0.39.
For the sequence TAFLPDSKCLVDDGTGRMPTLKKC [GALNT9], the protein stability index amounted to 4.17 ± 0.18 under setting [1] and 4.16 ± 0.31 under setting [2].
The corresponding values for TAIRPLKILPWSPEKIGTRFLLYT [PNLIPRP1] are 2.23 ± 0.21 and 2.37 ± 0.24.
The corresponding values for TAIRQLTEPSGRVAKKTPTKRSTL [C2CD2L] are 4.37 ± 0.15 and 4.44 ± 0.084.
On the same counts, the results for TAISSFTRHVFTCGRRGIKVWSLT [TLE6] are 2.15 ± 0.47 and 2.16 ± 0.44.
TAKRINRTSLSSGATVRSFSINSR [CDC14A] gave a protein stability index under setting [1] of 3.26 ± 0.41 and a protein stability index under setting [2] of 3.6 ± 0.12.
The corresponding values for TAPLTELLHSRNEGVATYAAAVLF [CTNNB1] are 2.25 ± 0.46 and 2.36 ± 0.34.
In the case of TCGEGYQFRVVRCWKMLSPGFDSS [ADAMTSL2], the protein stability index reads like this: under setting [1], 2.77 ± 0.43; under setting [2], 2.28 ± 0.38.
Take TDFYLIFNDVAKFLKQGDSADETT [CMTM3]: the protein stability index by setting is: under setting [1], 2.75 ± 0.31; under setting [2], 2.6 ± 0.33.
On the same counts, the results for TDLEMQIEGLKEELAYLRKNHEEE [KRT16] are 5.24 ± 0.098 and 5.45 ± 0.23.
As to TEQALRLSVEADINGLRRVLDELT [KRT17], the protein stability index was 3.07 ± 0.2 under setting [1] and 3.18 ± 0.25 under setting [2].
On the same counts, the results for TEVPYATFTEHPMKYTSEKFLEIC [TPRG1] are 2.64 ± 0.068 and 2.75 ± 0.12.
On the same counts, the results for TFFGTELAPVRQQELASLLRTYLA [PBXIP1] are 2.22 ± 0.29 and 2.48 ± 0.43.
Consider TGPRLSFPLLPDHATALVEAFRLK [PPEF2], for which the protein stability index under setting [1] stood at 2.89 ± 0.23 and the protein stability index under setting [2] turned out to be 3.07 ± 0.19.
On the same counts, the results for TGYPYRYPALREKSKKYSDVEVPA [ADD1] are 3.67 ± 0.081 and 3.66 ± 0.044.
Turning to THQTQPGIRRARDKALSGGKRKET [NET1], the protein stability index runs as follows: under setting [1], 4.79 ± 0.23; under setting [2], 5 ± 0.17.
Regarding TIEQSLLEVMEEEELANLRASQRE [RSPH3], the protein stability index by setting is: under setting [1], 4.68 ± 0.24; under setting [2], 4.88 ± 0.18.
On the same counts, the results for TILNVRDPTGASIALFTARLHHPH [PTPN9] are 2.5 ± 0.21 and 1.89 ± 0.18.
On to TKFEVRLLRDPADASEAHESSSRG [CHGB], for which the protein stability index runs as follows: under setting [1], 4.61 ± 0.26; under setting [2], 4.64 ± 0.12.
As for TLARCAKDILGFAVMFFIVFFAYA [PKD2L1], the protein stability index reads like this: under setting [1], 3.07 ± 0.66; under setting [2], 2.68 ± 0.35.
Turning to TLARMSRRTRGPVERAAAAAAAAA [C6orf223], the protein stability index stood at 3.02 ± 0.56 under setting [1] and 3.43 ± 0.91 under setting [2].
On the same counts, the results for TLDSYEDKQKLKRTEIISRSWFPS [YJU2B] are 3.14 ± 0.12 and 3.24 ± 0.29.
Regarding TLEEIQKHNHSKSTWLILHHKVYD [CYB5A], the protein stability index by setting is: under setting [1], 2.37 ± 0.19; under setting [2], 2.58 ± 0.24.
For the sequence TLGEQGLPHQSHRQRSSLAKINIV [SCNN1D], the protein stability index is, setting by setting: under setting [1], 3.27 ± 0.28; under setting [2], 3.33 ± 0.1.
As for TLLEAEPPHVLISRPSAPFTEASM [ESR2], the protein stability index amounted to 3.31 ± 0.26 under setting [1] and 3.46 ± 0.29 under setting [2].
Sequence TLTKQDTMLKAMFSGRMEVLTDSE [KCTD10] registered a protein stability index under setting [1] of 4.09 ± 0.26 and a protein stability index under setting [2] of 4.32 ± 0.2.
On the same counts, the results for TMGMGMPNIAMTSGTVQPKQDAFA [CLINT1] are 3.9 ± 0.17 and 3.98 ± 0.21.
TMIQQQNMQQPMNVMTQSFGAVNL [CLINT1] showed a protein stability index under setting [1] of 2.69 ± 0.39 and a protein stability index under setting [2] of 2.94 ± 0.39.
Regarding TNCWLIRELNLPFGGMKSSGIGRE [ALDH8A1], the protein stability index stood at 2.31 ± 0.41 under setting [1] and 2.29 ± 0.33 under setting [2].
The corresponding values for TNMARIREIMEKFGKQPVSLPARR [CPXM2] are 2.72 ± 0.1 and 3.06 ± 0.31.
As to TPEAKDLINKMLTINPSKRITAAE [CAMK2A], the protein stability index amounted to 4.28 ± 0.17 under setting [1] and 4.42 ± 0.1 under setting [2].
Turning to TPIQLQELLALETALGGQCVDRQE [TCAP], the protein stability index stood at 4.52 ± 0.11 under setting [1] and 4.47 ± 0.26 under setting [2].
For the sequence TPKLDCFLSGMEAAPRTLAAHPPL [TBX6], the protein stability index under setting [1] worked out at 3.18 ± 0.17 and the protein stability index under setting [2] turned out to be 3.48 ± 0.2.
On the same counts, the results for TPMLNPLIYTLKNAEMKSAMRKLW [OR4A15] are 2.11 ± 0.32 and 2.04 ± 0.16.
On the same counts, the results for TPVSNSLLPEKAFSDIPSPYLRGT [GFOD1] are 4.03 ± 0.28 and 3.98 ± 0.1.
The corresponding values for TQAHIQECKHPSVFQHGDNSFRLL [MCOLN1] are 2.78 ± 0.11 and 2.92 ± 0.16.
With TQELVAIKIIKNKKAFLNQAQIEL [DYRK1B], the protein stability index reads like this: under setting [1], 2.18 ± 0.27; under setting [2], 2.17 ± 0.3.
The corresponding values for TQIEDATEKLKANAESSKTWLKGK [TRIM14] are 4.95 ± 0.37 and 5 ± 0.18.
